This experiment deals with T1, UBE2D2(C85K)-Ub-FL-BODIPY (human | , UniProt P62837 1-147; P0CG48 1-76, C85K, ubiquitinated in vitro; BODIPY labelled in vitro (position not given)).
T1 construct: UBE2D2 ubiquitin-conjugating enzyme, human, with C85K; ubiquitin, conjugated in vitro to UBE2D2(C85K); also called UBE2D2(C85K), ubiquitinated and BODIPY labelled; source: E. coli, purified, ubiquitinated and BODIPY labelled in vitro
Briefly: AlphaScreen or HTRF; TR-FRET: biotinylated Cbl-b (36-427) with Src-Zap-70 fusion and ATP (enzyme reaction), UBE2D2(C85K)-Ub-FL-BODIPY and Streptavidin-Tb (binding reaction); signal at 520 nm, reference at 620 nm; used to titrate small-molecule Cbl-b inhibitors (NTX-512, NTX-447, NTX-307). The settings on record: both partners purified. A general note: In Alpha technology, singlet oxygen from a donor bead excites a nearby acceptor bead.

B1: recombinant human Cbl-b (aa 36-427), biotinylated (domain or fragment, UniProt Q13191 36-427, looked up)
chain: PKQAAADRRTVEKTWKLMDKVVRLCQNPKLQLKNSPPYILDILPDTYQHLRLILSKYDDNQKLAQLSENEYFKIYIDSLMKKSKRAIRLFKEGKERMYEEQSQDRRNLTKLSLIFSHMLAEIKAIFPNGQFQGDNFRITKADAAEFWRKFFGDKTIVPWKVFRQCLHEVHQISSGLEAMALKSTIDLTCNDYISVFEFDIFTRLFQPWGSILRNWNFLAVTHPGYMAFLTYDEVKARLQKYSTKPGSYIFRLSCTRLGQWAIGYVTGDGNILQTIPHNKPLFQALIDGSREGFYLYPDGRSYNPDLTGLCEPTPHDHIKVTQEQYELYCEMGSTFQLCKICAENDKDVKIEPCGHLMCTSCLTAWQESDGQGCPFCRCEIKGTEPIIVDPFD
modifications: biotinylated in vitro (position not given)
notes: Cbl-b, human, residues 36-427; In the assay it was mixed with a recombinant human Src (aa 254-536)-Zap-70 (aa 281-297) fusion protein and ATP ('enzyme reaction'); Detected through Streptavidin-Tb; also called Cbl-b enzyme; source: E. coli, purified and biotinylated in vitro
B1: the binding result is listed as “binds”.

The values are drawn from paper PMC9459147, “Targeting the Cbl-b-Notch1 axis as a novel immunotherapeutic strategy to boost CD8+ T-cell responses” (Frontiers in Immunology, 2022).
